In patent US20220024975A1 (ARROWHEAD PHARMACEUTICALS, published 2022):
“And” between values parts separate entries of the source, which are not always exact repeats. Identical values can stand only once. Non-standard residues stand in square brackets, D forms with d. No end group written: not given here. *: point of attachment. MeO‑PEG8 = N-terminal cap, methoxy-PEG with 8 ethylene glycol units; guanidinyl = N-terminal guanidinyl cap, N=C(N)*; Pentanoyl(5-guanidino) = NC(N)=NCCCCC(=O)*; Cha = N[C@@H](CC1CCCCC1)C(=O)O; Cit = NC(=O)NCCC[C@H](N)C(=O)O; Agp = N=C(N)NC[C@H](N)C(=O)O; Abu = CC[C@H](N)C(=O)O; Aib = CC(C)(N)C(=O)O; Sar = CNCC(=O)O

B1: MeO-PEG8-RGDLATLRQL (peptide)
peptide: {MeO‑PEG8}-RGDLATLRQL
modifications: not fully specified; printed as MeO-PEG8-RGDLATLRQL
notes: Tested as ligand-(PEG)8-K-HyNic conjugated to Cy5-labelled 1170-100B polymer
B2: RGDLATLRQLEEEK-(HyNic) (peptide)
peptide: RGDLATLRQLEEEK(HyNic)
modifications: also: conjugated via HyNic to Cy5-labelled 1170-100B polymer, places HyNic at (1)..(1) as C-terminal
notes: Conjugated to Cy5-labelled 1170-100B polymer; printed with its own K-(HyNic)
B3: RGDLAT (peptide)
peptide: RGDLAT
modifications: not fully specified
notes: as for B1
B4: RGDLATL (peptide)
peptide: RGDLATL
modifications: not fully specified
notes: Tested as ligand-(PEG)8-K-HyNic conjugated to Cy5-labelled 1170-100B polymer; also called natural peptide
B5: RGDLATLRQ (peptide)
peptide: RGDLATLRQ
modifications: not fully specified
notes: as for B1
B6: Guanidinyl-RGDLATLRQL (peptide)
peptide: guanidinyl-RGDLATLRQL
modifications: not fully specified; printed as Guanidinyl-RGDLATLRQL
notes: as for B1
B7: des-amino-… (peptide)
peptide: [Pentanoyl(5-guanidino)]GDLATLRQL
modifications: not fully specified (C-terminus); printed as des-amino-RGDLATLRQL; also: HyNic conjugated to Cy5-labelled 1170-100B polymer
B8: Ac-RGDLAILRQL (peptide)
peptide: Ac-RGDLAILRQL
modifications: not fully specified; printed as Ac-RGDLAILRQL
notes: as for B1
B9: Ac-RGDLALLRQL (peptide)
peptide: Ac-RGDLALLRQL
modifications: not fully specified; printed as Ac-RGDLALLRQL
notes: as for B1
B10: Ac-RGDLAVLRQL (peptide)
peptide: Ac-RGDLAVLRQL
modifications: not fully specified; printed as Ac-RGDLAVLRQL
notes: as for B1
B11: RGELATLRQL (RGE control) (peptide)
peptide: RGELATLRQL
modifications: not fully specified; printed as RGELATLRQL (RGE control)
notes: Negative control; Tested as ligand-(PEG)8-K-HyNic conjugated to Cy5-labelled 1170-100B polymer
B12: Dap(guanidino)-GDLATLRQL (peptide)
peptide: [Agp]GDLATLRQL
modifications: not fully specified; printed as Dap(guanidino)-GDLATLRQL
notes: as for B1
B13: Me-RGDLATLRQL (peptide)
peptide: Me-RGDLATLRQL
modifications: not fully specified; printed as Me-RGDLATLRQL
notes: as for B1
B14: Ac-RGDLATLRQL (peptide)
peptide: Ac-RGDLATLRQL
modifications: not fully specified; printed as Ac-RGDLATLRQL
notes: as for B1

The molecules below were run against T1, αvβ6 integrin (human, UniProt P06756 31-1048; P18564 22-788) (assay: flow cytometry, Cy5-polymer conjugate 5 µg/ml, H2009 cells).
T1 construct: whole, on cells; target is the endogenous integrin on αvβ6 positive-control cell lines; also called Integrin alpha-v beta-6
T1 sequence (P06756 31-1048, chain 1 of 2): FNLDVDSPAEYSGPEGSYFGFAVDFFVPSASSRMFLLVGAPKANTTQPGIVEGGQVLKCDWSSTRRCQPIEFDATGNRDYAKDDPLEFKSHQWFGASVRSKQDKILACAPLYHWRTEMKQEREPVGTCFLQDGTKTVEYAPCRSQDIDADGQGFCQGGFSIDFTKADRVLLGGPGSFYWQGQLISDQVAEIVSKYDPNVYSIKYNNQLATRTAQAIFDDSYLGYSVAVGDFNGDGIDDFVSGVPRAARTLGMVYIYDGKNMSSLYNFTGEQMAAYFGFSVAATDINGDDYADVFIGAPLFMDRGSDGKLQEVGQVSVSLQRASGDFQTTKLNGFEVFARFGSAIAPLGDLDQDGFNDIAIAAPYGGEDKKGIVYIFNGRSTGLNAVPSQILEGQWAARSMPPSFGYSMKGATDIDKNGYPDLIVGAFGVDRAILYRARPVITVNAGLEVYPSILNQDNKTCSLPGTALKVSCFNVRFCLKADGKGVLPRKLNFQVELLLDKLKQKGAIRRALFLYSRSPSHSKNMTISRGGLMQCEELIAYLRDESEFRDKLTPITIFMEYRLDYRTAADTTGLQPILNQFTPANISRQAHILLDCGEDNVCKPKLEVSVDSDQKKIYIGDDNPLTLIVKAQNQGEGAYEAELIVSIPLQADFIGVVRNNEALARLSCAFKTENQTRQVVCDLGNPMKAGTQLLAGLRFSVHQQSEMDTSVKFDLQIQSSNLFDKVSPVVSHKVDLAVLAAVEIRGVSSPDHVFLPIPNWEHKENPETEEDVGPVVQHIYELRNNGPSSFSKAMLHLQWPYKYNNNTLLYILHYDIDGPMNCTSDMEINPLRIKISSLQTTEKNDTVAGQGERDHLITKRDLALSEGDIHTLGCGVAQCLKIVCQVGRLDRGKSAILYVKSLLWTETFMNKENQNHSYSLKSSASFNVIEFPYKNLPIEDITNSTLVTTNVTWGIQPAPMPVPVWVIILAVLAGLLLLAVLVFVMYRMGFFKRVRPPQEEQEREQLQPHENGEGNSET
T1 sequence (P18564 22-788, chain 2 of 2): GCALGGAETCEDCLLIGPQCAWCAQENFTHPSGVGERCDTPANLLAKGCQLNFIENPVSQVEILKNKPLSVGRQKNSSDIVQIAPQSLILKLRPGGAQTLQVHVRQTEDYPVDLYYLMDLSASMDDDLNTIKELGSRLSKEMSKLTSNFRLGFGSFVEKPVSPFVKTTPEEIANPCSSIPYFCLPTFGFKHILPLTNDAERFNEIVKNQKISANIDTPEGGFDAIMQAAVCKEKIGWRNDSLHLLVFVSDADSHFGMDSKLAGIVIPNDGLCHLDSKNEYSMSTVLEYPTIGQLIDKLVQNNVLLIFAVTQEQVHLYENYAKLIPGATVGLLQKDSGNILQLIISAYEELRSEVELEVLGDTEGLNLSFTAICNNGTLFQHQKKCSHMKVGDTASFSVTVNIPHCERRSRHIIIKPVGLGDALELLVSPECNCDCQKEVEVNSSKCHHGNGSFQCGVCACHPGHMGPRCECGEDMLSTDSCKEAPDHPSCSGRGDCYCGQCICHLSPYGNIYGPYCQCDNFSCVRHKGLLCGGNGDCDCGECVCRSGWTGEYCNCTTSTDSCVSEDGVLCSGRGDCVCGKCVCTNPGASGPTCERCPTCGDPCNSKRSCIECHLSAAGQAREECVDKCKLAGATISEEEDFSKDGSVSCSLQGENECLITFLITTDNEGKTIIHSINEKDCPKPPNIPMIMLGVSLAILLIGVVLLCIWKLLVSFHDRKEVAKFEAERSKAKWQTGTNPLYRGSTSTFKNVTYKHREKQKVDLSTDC
Description: (§1) B. αvβ6 ligand binding (flow cytometric analyses). To assess for specificity of binding of the αvβ6 ligands to the αvβ6 integrin, each αvβ6 ligand or negative control peptide was conjugated to a Cy5-labeled polymer (as described above) and evaluated for binding to cells. […] H2009 (human lung epithelial adenocarcinoma) and CAPAN-2 (human pancreas adenocarcinoma) cells served as the αvβ6 positive-control cell lines. Cells were detached from culturing flasks with Accutase, washed in PBS, and seeded into 5 ml polystyrene round-bottom tubes at 200,000 cells in 200 μl complete media (culturing media with supplements and fetal calf serum). αvβ6 ligand-polymer conjugates or no-ligand-polymer conjugates were added at 5 μg/ml (polymer-Cy5 concentration) to cells, mixed and incubated at 37° C. for 3 h. Incubation at 37° C. facilitated ligand/receptor interaction which may result in static binding to the extracellular cell surface and/or internalized ligand/receptor complexes. The mixture was re-suspended at 1 h intervals. Following a 3 h incubation, cells were washed 2× with 4 ml chilled buffer (PBS-2% FCS) and re-suspended in 200 μl buffer containing 10 μM SYTOX blue stain for live/dead cell gating. Samples were analyzed on a BD Biosciences Canto II cytometer equipped with a violet (405 nm), blue (488 nm) and red (633 nm) lasers.
(§2) Viable cells were initially gated as the SYTOX blue negative population on the C detector with the violet laser. These viable cells were then assessed for conjugate binding/uptake with the red laser as the Mean Fluorescence Intensity (MFI) of the Cy5 fluorophore. Data analyses were performed with FlowJo v10.1 software. A specific MFI Ratio (sMFIr) for each αvβ6 ligand was determined by the formula: […]
With Ac-RGDLAEL[Cit][Aib] the MFI (specific MFI ratio, sample/no-ligand) was 2.4. Ac-RGDαMeLAAbuLCitAib (peptide) was tested, and the MFI (specific MFI ratio, sample/no-ligand) was 0.8 and 1. In the case of “CH3O(CH2CH2O)1CH2CH2CO-RGDLAAbuLCitAib (peptide)”, the MFI (specific MFI ratio, sample/no-ligand) is reported as 3.8. Ac-RGDLE[Abu]L[Cit][Aib] was tested, and the MFI (specific MFI ratio, sample/no-ligand) was 2.6. Ac-RGDL[Cha]TLRQL showed an MFI (specific MFI ratio, sample/no-ligand) of 5.1. In the case of Ac-RGDLA[Abu]L[Cit][Aib], the MFI (specific MFI ratio, sample/no-ligand) is reported as 4.7 and 3.8. CH3(CH2)2CO-RGDLAAbuLCitAib (peptide) showed an MFI (specific MFI ratio, sample/no-ligand) of 4.3. CH3(CH2)2-RGDLAAbuLCitAib (peptide) gave an MFI (specific MFI ratio, sample/no-ligand) of 3.9. Ac-RGDLA[Abu]L[Aib] gave an MFI (specific MFI ratio, sample/no-ligand) of 3.2. Ac-RGDLA[Abu]L[Cit]F gave an MFI (specific MFI ratio, sample/no-ligand) of 3.7. Ac-RGDLG[Abu]L[Cit][Aib] gave an MFI (specific MFI ratio, sample/no-ligand) of 3.7. Ac-RGDLF[Abu]L[Cit][Aib] showed an MFI (specific MFI ratio, sample/no-ligand) of 2.7. Molecule Ac-RGDLA[Abu]LK[Aib] has an MFI (specific MFI ratio, sample/no-ligand) of 5.4. In the case of CH3CH2-RGDLAAbuLCitAib (peptide), the MFI (specific MFI ratio, sample/no-ligand) is reported as 4.4. In the case of Ac-R[Sar]DLA[Abu]L[Cit][Aib], the MFI (specific MFI ratio, sample/no-ligand) is reported as 2.6. Molecule Ac-RGDLA[Abu]LP[Aib] has an MFI (specific MFI ratio, sample/no-ligand) of 1.6. Ac-RGDLA[Abu]L[Cit]G was tested, and the MFI (specific MFI ratio, sample/no-ligand) was 4.8. Ac-RGDLA[Abu]LG[Aib] gave an MFI (specific MFI ratio, sample/no-ligand) of 4. Ac-RGDLβ3-hAAbuLCitAib (peptide) gave an MFI (specific MFI ratio, sample/no-ligand) of 2.34. Ac-RGDLA[Abu]LRQL was tested, and the MFI (specific MFI ratio, sample/no-ligand) was 6.47. Work on Ac-RGDLA[Abu]LF[Aib] yielded an MFI (specific MFI ratio, sample/no-ligand) of 3.6. For Ac-RGDLATL[Cit]QL, the MFI (specific MFI ratio, sample/no-ligand) was 3.94. RGDLA[Abu]L[Cit][Aib]L gave an MFI (specific MFI ratio, sample/no-ligand) of 4.6. “CH3O(CH2CH2O)2CH2CH2CO-RGDLAAbuLCitAib (peptide)” was tested, and the MFI (specific MFI ratio, sample/no-ligand) was 3.6. With “CH3O(CH2CH2O)5CH2CH2CO-RGDLAAbuLCitAib (peptide)” the MFI (specific MFI ratio, sample/no-ligand) was 1.6. For Ac-RGDLAPL[Cit][Aib], the MFI (specific MFI ratio, sample/no-ligand) was 2.8. Ac-RGDLAGL[Cit][Aib] was tested, and the MFI (specific MFI ratio, sample/no-ligand) was 3.8. For Ac-RGDLA[Abu]LE[Aib], the MFI (specific MFI ratio, sample/no-ligand) was 1.9. In the case of Ac-RGDLAFL[Cit][Aib], the MFI (specific MFI ratio, sample/no-ligand) is reported as 2. Work on Ac-RGDLβ3-hATLRQL (peptide) yielded an MFI (specific MFI ratio, sample/no-ligand) of 4.5. With Ac-RGDLQ[Abu]L[Cit][Aib] the MFI (specific MFI ratio, sample/no-ligand) was 3.7. In the case of Ac-RGDLAKL[Cit][Aib], the MFI (specific MFI ratio, sample/no-ligand) is reported as 3.6. Ac-RGDLAAbuNMeLCitAib (peptide) gave an MFI (specific MFI ratio, sample/no-ligand) of 1.3. For Ac-RGDLA[Abu]L[Cit]E, the MFI (specific MFI ratio, sample/no-ligand) was 4. For Ac-RGDLAQL[Cit][Aib], the MFI (specific MFI ratio, sample/no-ligand) was 3.6. In the case of Ac-RGDLA[Abu]L[Cit]Q, the MFI (specific MFI ratio, sample/no-ligand) is reported as 4.4. For CH3(CH2)1CO-RGDLAAbuLCitAib (peptide), the MFI (specific MFI ratio, sample/no-ligand) was 4.2. “CH3O(CH2CH2O)3CH2CH2CO-RGDLAAbuLCitAib (peptide)” was tested, and the MFI (specific MFI ratio, sample/no-ligand) was 3.7. Work on Ac-RGDL[Aib]TLRQL yielded an MFI (specific MFI ratio, sample/no-ligand) of 4. For Ac-RGDLA[Abu]L[Cit][Aib]L, the MFI (specific MFI ratio, sample/no-ligand) was 3.2 and 4.55 and 4.6. Work on Ac-[Cit]GDLATL[Cit]QL yielded an MFI (specific MFI ratio, sample/no-ligand) of 0.99. Work on Ac-RGDLA[Abu]L[Cit]K yielded an MFI (specific MFI ratio, sample/no-ligand) of 5.2. CH3(CH2)3CO-RGDLAAbuLCitAib (peptide) was tested, and the MFI (specific MFI ratio, sample/no-ligand) was 4.1. Molecule Ac-RGDLP[Abu]L[Cit][Aib] has an MFI (specific MFI ratio, sample/no-ligand) of 1. For CH3(CH2)3-RGDLAAbuLCitAib (peptide), the MFI (specific MFI ratio, sample/no-ligand) was 4.7. Ac-RGDLA[Abu]LQ[Aib] was tested, and the MFI (specific MFI ratio, sample/no-ligand) was 4.4. CH3(CH2)4-RGDLAAbuLCitAib (peptide) showed an MFI (specific MFI ratio, sample/no-ligand) of 4.1. For Ac-RGDLA[Abu]L[Cit], the MFI (specific MFI ratio, sample/no-ligand) was 3.3. Ac-RGαMeDLAAbuLCitAib (peptide) was tested, and the MFI (specific MFI ratio, sample/no-ligand) was 0.9 and 1. Ac-RGDLA[Abu]L gave an MFI (specific MFI ratio, sample/no-ligand) of 2.6. In the case of Ac-RGDNMeLAAbuLCitAib (peptide), the MFI (specific MFI ratio, sample/no-ligand) is reported as 1. With Ac-RGDL[Cha][Abu]L[Cit][Aib] the MFI (specific MFI ratio, sample/no-ligand) was 1.6. For Ac-RGDLK[Abu]L[Cit][Aib], the MFI (specific MFI ratio, sample/no-ligand) was 3.6. Ac-RGDLA[Abu]L[Cit]P gave an MFI (specific MFI ratio, sample/no-ligand) of 4. Molecule CH3(CH2)4CO-RGDLAAbuLCitAib (peptide) has an MFI (specific MFI ratio, sample/no-ligand) of 3.9. For B1, the “MFI (specific MFI ratio, sample/no-ligand)” value was 2.5 ratio. In the case of B2, the “MFI (specific MFI ratio, sample/no-ligand)” value is reported as 6.5 ratio. B3 was tested, and the “MFI (specific MFI ratio, sample/no-ligand)” value was 1.3 ratio. For B4, the “MFI (specific MFI ratio, sample/no-ligand)” value was 2.9 ratio. For B5, the “MFI (specific MFI ratio, sample/no-ligand)” value was 4.7 ratio. With B6 the “MFI (specific MFI ratio, sample/no-ligand)” value was 4.3 ratio. Work on B7 yielded an MFI (specific MFI ratio, sample/no-ligand) of 1.1. In the case of B8, the “MFI (specific MFI ratio, sample/no-ligand)” value is reported as 6.22 ratio. In the case of B9, the “MFI (specific MFI ratio, sample/no-ligand)” value is reported as 6.06 ratio. In the case of B10, the “MFI (specific MFI ratio, sample/no-ligand)” value is reported as 6.23 ratio. With B11 the “MFI (specific MFI ratio, sample/no-ligand)” value was 0.99 ratio. B12 was tested, and the “MFI (specific MFI ratio, sample/no-ligand)” value was 3.4 ratio. B13 was tested, and the “MFI (specific MFI ratio, sample/no-ligand)” value was 4.8 ratio. In the case of B14, the “MFI (specific MFI ratio, sample/no-ligand)” value is reported as 4.7 ratio.

These molecules were tested against T1, αvβ6 integrin (assay: flow cytometry, Cy5-polymer conjugate 5 µg/ml, CAPAN-2 cells).
Work on Ac-RGDαMeLAAbuLCitAib (peptide) yielded an MFI (specific MFI ratio, sample/no-ligand) of 0.9. Ac-RGDLA[Abu]L[Aib] gave an MFI (specific MFI ratio, sample/no-ligand) of 8.9. In the case of Ac-RGDLA[Abu]L[Cit][Aib]L, the MFI (specific MFI ratio, sample/no-ligand) is reported as 7.7. For Ac-RGαMeDLAAbuLCitAib (peptide), the MFI (specific MFI ratio, sample/no-ligand) was 1. Ac-RGDLA[Abu]L gave an MFI (specific MFI ratio, sample/no-ligand) of 7.9.

Each molecule was assayed against T1, αvβ6 integrin (assay: flow cytometry, Cy5-polymer conjugate on H2009 / CAPAN-2 cells).
Description: as §1, with “Incubation at 37° C. facilitated ligand/receptor interaction which may result in static binding to the extracellular cell surface and/or internalized ligand/receptor complexes. The mixture was re-suspended at 1 h intervals. Following a 3 h incubation, cells were washed 2× with 4 ml chilled buffer (PBS-2% FCS) and re-suspended in 200 μl buffer containing 10 μM SYTOX blue stain for live/dead cell gating.” left out
as §2, with “Data analyses were performed with FlowJo v10.1 software.” left out
B11: no binding (tested: 5 µg/ml (polymer-Cy5 concentration)).
